In one assay the target is T1, Monomeric hAng-2FD (human, UniProt O15123 282-496).
T1 construct: also called fibrinogen-like domain of human Ang2; Human Ang-2FD
T1 sequence: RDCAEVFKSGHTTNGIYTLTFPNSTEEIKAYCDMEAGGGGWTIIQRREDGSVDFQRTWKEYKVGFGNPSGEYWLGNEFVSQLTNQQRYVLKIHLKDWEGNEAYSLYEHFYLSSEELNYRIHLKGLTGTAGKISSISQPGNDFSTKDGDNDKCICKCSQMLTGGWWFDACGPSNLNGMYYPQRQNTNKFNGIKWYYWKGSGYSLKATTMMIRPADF
Briefly: SPR, captured Ab. (In SPR one partner is held on a chip, and binding of the other changes the refractive index at the surface.)

Assay [1] has as its target T2, wild-type human Ang-2 (hAng-2-WT) (human, UniProt O15123 19-496).
T2 construct: called full-length wild-type; also called Full-length wild-type human Ang-2
T2 sequence: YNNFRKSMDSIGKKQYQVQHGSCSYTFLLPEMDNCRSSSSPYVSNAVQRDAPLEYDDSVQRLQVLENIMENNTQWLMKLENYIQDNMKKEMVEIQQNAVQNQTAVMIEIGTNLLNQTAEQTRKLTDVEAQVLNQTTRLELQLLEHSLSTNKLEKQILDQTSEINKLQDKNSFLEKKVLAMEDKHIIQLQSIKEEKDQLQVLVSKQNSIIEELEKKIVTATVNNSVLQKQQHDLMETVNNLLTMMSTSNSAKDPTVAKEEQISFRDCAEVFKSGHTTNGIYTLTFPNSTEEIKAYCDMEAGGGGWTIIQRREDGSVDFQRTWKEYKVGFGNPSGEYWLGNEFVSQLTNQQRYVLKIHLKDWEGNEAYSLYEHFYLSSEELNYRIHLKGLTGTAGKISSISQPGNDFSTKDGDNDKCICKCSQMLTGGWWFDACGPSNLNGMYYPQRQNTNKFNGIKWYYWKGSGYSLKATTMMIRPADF
The experiment in a line: SPR, captured Ab.

The target in assay [2] is T3, Dimeric Mouse Ang-2FD conjugated to human IgG1 (mouse (Mus musculus); human).
T3 construct: also called Mouse Ang-2FD-hFc
Briefly: SPR, captured Ab, RT. The method, then:
(§1) Antibody was captured on a goat anti-mouse IgG polyclonal antibody surface, a goat anti-human κ polyclonal antibody (Southern Biotech, Birmingham, Ala.) surface or a goat anti-human IgG polyclonal antibody (Jackson Immuno Research Lab, West Grove, Pa.) surface created through direct amine coupling to a BIACORE™ CM5 sensor chip to form a captured antibody surface. […] Antigen-antibody binding and dissociation were monitored in real time at room temperature. Kinetic analysis was performed to calculate KD and half-life of antigen/antibody complex dissociation.

In assay [3] the target is T4, Dimeric Human Ang-2FD conjugated to human IgG1 (human).
T4 construct: also called Human Ang-2FD-hFc; hAng-2FD-hFc
The experiment in a line: SPR, captured Ab, RT. The method, then:
as §1

The target of assay [4] is T5, Dimeric Monkey Ang-2FD conjugated to human IgG1 (monkey (Macca fascicularis); human).
T5 construct: also called Monkey Ang-2FD-hFc
The experiment in a line: SPR, captured Ab, RT. How it is done:
as §1

In assay [5] the target is T3, Dimeric Mouse Ang-2FD conjugated to …. The experiment in a line: competition ELISA, 16.67 nM Ab, coated hTie-2-mFc. How it is done:
(§2) The plate was then blocked with PBS (Irvine Scientific, Santa Ana, Calif.) containing 0.5% BSA (Sigma-Aldrich Corp., St. Louis, Mo.) for one hour at room temperature. […] Human, mouse or monkey Ang-2FD protein conjugated to human IgG (Ang-2FD-hFc) were added to final concentrations of 2 nM, 8 nM, or 2 nM respectively and incubated for one hour at room temperature. The antibody/Ang-2FD-Fc mixture was then added to the plate containing hTie-2-mFc and incubated for one hour at room temperature. Detection of Ang-2FD-hFc bound to hTie-2-mFc protein was determined with Horse-Radish Peroxidase (HRP) conjugated to a-human IgG antibody (Jackson Immuno Research Lab, West Grove, Pa.) and developed by standard colorimetric response using tetramethylbenzidine (TMB) substrate (BD Biosciences, San Jose, Calif.). Absorbance was read at OD₄₅₀ for 0.1 sec.
(ELISA stands for enzyme-linked immunosorbent assay.)

Assay [6] addresses T4, Dimeric Human Ang-2FD conjugated to …. The experiment in a line: competition ELISA, 16.67 nM Ab, coated hTie-2-mFc. The method, then:
as §2

Assay [7] has as its target T5, Dimeric Monkey Ang-2FD conjugated to …. Briefly: competition ELISA, 16.67 nM Ab, coated hTie-2-mFc. How it is done:
as §2

B1: H1M728N (antibody, V domains shown)
VH: EVQLVESGGDLVQPGGSLRLSCTASGFTFSKYWMTWVRQAPGRGLEWVANIKEDGNEKYFLDSVKGRFTISRDNAKDLLFLQMNSLRGEDTAVYYCVRDRGIEVAGPFDYWGQGTLVTVSS
VL: DIQMTQSPSTLSASVGDRVTVTCRASQTIINWLAWYQQKPGKAPKLLISKASSLESGVPSRFSGSGSGTEFTLTISSLQPDDFATYYCQQYNRYWTFGQGTMVEIK
Take B1: the Kd (commonly the concentration at which binding is half-saturated) with Monomeric hAng-2FD was found to be 1.17 nM; in assay [1], 0.0338 nM; in assay [2] it was 5.65 nM; in assay [3], 0.137 nM; in assay [4], 1.58 nM. In addition, the T1/2 amounted to 33.9 min with Monomeric hAng-2FD; 12.1 h in assay [1]; 9.9 min in assay [2]; 58.4 min in assay [3]; 69.5 min in assay [4]. Moreover, the “Percent Blocking of Ang-2FD Binding to Tie-2” value (“Percent Blocking” for short) in assay [5] was determined as 83.9%; in assay [6], 98.5%; in assay [7], 97.1%.

B2: H2M743N (antibody, V domains shown)
VH: EVQLLESGGGLVQPGGSLRLSCAASGFTFRKYAMSWVRQAPGKGLEWVSVISVSGGNTYYADSVKGRFTISRDNSKNTLYLQLNSLRAEDTAVYYCAKDLTDIVLMVYVDYWGQGTLVTVSS
VL: DIQMTQSPSSVSASVGDRVTITCRASQDIDRWLAWYQQKPGKAPKLLIYAASSLQSGVPSRFSGSGSGTDFTLTISTLQPEDFATYYCQQANSLPFTFGGGTKVEIK
In the case of B2, the Kd with Monomeric hAng-2FD was 0.399 nM; in assay [1], 0.0143 nM; in assay [2] it was 0.882 nM; in assay [3], 0.154 nM; in assay [4] it was 0.234 nM. Moreover, the T1/2 with Monomeric hAng-2FD stood at 157 min; in assay [1], 39.4 h; in assay [2], 195 min; in assay [3] it was 167 min; in assay [4], 169 min. Besides, the “Percent Blocking” value in assay [5] came out at 98.4%; in assay [6] it was 99.6%; in assay [7] it was 95.1%.

B3: H2M750N (antibody, V domains shown)
VH: QVKLVESGGGVVQPGRSLRVSCAASGFTFSSYGMHWVRQAPGKGLEWLAIIWYDGDNKYYSDSVKGRFTISRDNSKNTLYLQMNSLRAEDTAEYYCVRDASIASRFLDYWGQGTLVTVSS
VL: DIQMTQSPSSLSASIGDRVTITCRATQDINNYLAWFQQKPGKAPKSLIYATSNLQSGVPSKFSGSGSGTDYTLTISSLQPEDFSTYYCQQYHSYPLTFGGGTKVEIK
With B3, the Kd with Monomeric hAng-2FD was determined as 4.42 nM; in assay [1], 0.0408 nM; in assay [3], 0.362 nM; in assay [4], 1.47 nM. The T1/2 is 21.5 min with Monomeric hAng-2FD, 16.5 h in assay [1], 32.2 min in assay [3] and 23 min in assay [4]. Further, the figures for the “Percent Blocking” value in assay [5], in assay [6] and in assay [7] were 53.7%, 99.4% and 97.4%, respectively.

B4: H2M744N (antibody, V domains shown)
VH: QVQLVQSGVEVKKPGASVKVSCKTSGYTFSNNGFSWVRQAPGQGLEWLGWISGYNGNTNYAQKFQGRVTMTTDTSTSTAYMELRTLRSDDTAVYYCARDQDYSNFHWLDPWGQGTLVTVAS
VL: DIQMTQSPSSVSASVGDRVIITCRASQGLSSWLAWYQQKPGTAPKLLIHSASSLQTGVPSRFSGSGSGTEFALTINSLQPEDFGTYYCQQANSFPLTFGGGTRVEIK
Regarding B4, the Kd in the assay with Monomeric hAng-2FD came to 0.475 nM; in assay [1] it was 0.0289 nM; in assay [2], 0.143 nM; in assay [3] it was 0.0989 nM; in assay [4], 0.5 nM. The T1/2 with Monomeric hAng-2FD worked out at 89.3 min; in assay [1], 14.1 h; in assay [2], 223 min; in assay [3], 109 min; in assay [4], 282 min. Besides, the “Percent Blocking” value came out at 98.4% in assay [5], 99.5% in assay [6] and 95.5% in assay [7].

B5: H2M742N (antibody, V domains shown)
VH: DVQLLESGGDLVQPGGSLRLSCEASGFTFRNYVMIWVRQAPGKGLEWVSGISNSGGTTHYTDSVKGRFTISRDNSKNTLYLQINSLRAEDTAVYYCAKGYLDTSLIEGNWFDPWGQGTLVTVSS
VL: NIVMTQSPLSLPVTPGEPASISCRSSQSLLHSNGFNYLNWFLQKPGQSPQLLIYLGSNRASGVPDKFSGSGSGTDFTLNINRVEAEDVGIYFCMQTLQTPLTFGGGTKVEIK
As for B5, the Kd turned out to be 4.81 nM in the assay with Monomeric hAng-2FD; 0.0679 nM in assay [1]; 0.61 nM in assay [2]; 0.295 nM in assay [3]; 6.17 nM in assay [4]. For the same molecule, the T1/2 with Monomeric hAng-2FD came to 18 min; in assay [1], 7.28 h; in assay [2], 30.8 min; in assay [3], 38 min; in assay [4] it was 28.5 min. Besides, the “Percent Blocking” value in assay [5] worked out at 98.6%; in assay [6] it was 99.6%; in assay [7], 94.1%.

B6: H1M724N (antibody, V domains shown)
VH: QVQLVESGGGVVQPGRSLRLSCAASGFTLSNYGMHWVRQAPGKGLEWVAVIWHDGSNTYYADSVKGRFTISRDNSKNTLYLQMNSLRAEDTAVYYCTREGLDFWSGYYPNWFDPWGQGTLVTVSS
VL: DIQMTQSPSSLSASVGDRVTITCRASQGIRNDLGWYQQKPGKAPKRLIYAASNLQGGVPSRFSGSGSGTEFTLTISSLQPEDFAAYYCLQHNIYPLTFGGGTKVEIK
Consider B6, for which the Kd stood at 1.75 nM with Monomeric hAng-2FD; 0.0331 nM in assay [1]; 0.694 nM in assay [2]; 0.179 nM in assay [3]; 0.73 nM in assay [4]. Moreover, the T1/2 in the assay with Monomeric hAng-2FD worked out at 17.4 min; in assay [1], 9.47 h; in assay [2], 16 min; in assay [3], 42.7 min; in assay [4], 25.7 min. Also, the “Percent Blocking” value is 96.6% in assay [5], 99.5% in assay [6] and 95.2% in assay [7].

B7: H1M732N (antibody, V domains shown)
VH: EVQLVESGGGLVRPGGSLRLSCAASGFTFTNAWMSWVRQAPGKGLEWIGQIKSKTDGGTIDYAAPVKGRFTVSRDDSENTLFLQMNSLKTEDTAVYYCAGNWNYVDFDYWGQGTLVTVSS
VL: DIQMTQSPSSLSASVGDRVTITCRASQDIRNDLGWYQQKPGKAPKRLIYAASSLQGGVPSRFSGSGSGTEFTLTISSLQPEDFATYYCLQHNSYPFTFGPGTKVDIK
For the molecule B7, the Kd is 6.13 nM with Monomeric hAng-2FD; 0.131 nM in assay [1]; 1.7 nM in assay [2]; 0.484 nM in assay [3]; 7.33 nM in assay [4]. The T1/2 in the assay with Monomeric hAng-2FD was 18.7 min; in assay [1], 5.55 h; in assay [2], 21.4 min; in assay [3], 35.5 min; in assay [4], 24.1 min. Also, the “Percent Blocking” value was determined as 90.9% in assay [5], 97.7% in assay [6] and 95.8% in assay [7].

(Values after US20140112930A1 (published 2014).)
